# Measured values: US20110088129A1
# Assays:
# [1] = biological target: binding sites in brush border membrane vesicles (BBMV) from midguts of last instar Helicoverpa zea larvae (Helicoverpa zea); assay: homologous competition, 125I-Cry1Ac on H. zea BBMV, LIGAND program
# [2] = biological target: binding sites in brush border membrane vesicles (BBMV) from midguts of last instar Helicoverpa armigera larvae (Helicoverpa armigera); assay: direct saturation assay, labeled Cry1Ac on BBMV at the same concentration as for Cry2Ab
# [3] = biological target: binding sites in brush border membrane vesicles (BBMV) from midguts of last instar Helicoverpa armigera larvae (Helicoverpa armigera); assay: homologous competition, 125I-Cry1Ac on H. armigera BBMV, LIGAND program
substance,measurement,setting,value
Cry1Ac activated toxin (trypsin-activated Cry1Ac protoxin from B. thuringiensis strain HD73) (from UniProt P05068 29-623) (ligand),Kd,[1],0.17 nM
same,Rt (binding site concentration) (pmol/mg BBMV protein),[1],10
same,fold less toxin needed for saturation than in the Cry2Ab assay,[2],4 fold
same,Kd,[3],0.08 nM
same,Rt (binding site concentration) (pmol/mg BBMV protein),[3],0.96
